What all share (assay): SPOT array
The target in assay [1] is T1, Yfr024 SH3 (LSB3_YEAST), P43603.
T1 chain: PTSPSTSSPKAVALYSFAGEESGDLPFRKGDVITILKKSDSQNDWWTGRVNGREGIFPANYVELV

The target of assay [2] is T2, Yhr016c SH3 (YSC84_YEAST), P32793.
T2 chain: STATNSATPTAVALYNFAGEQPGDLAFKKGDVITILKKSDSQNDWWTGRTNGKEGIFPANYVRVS

Assay [3] addresses T3, Rvs167 SH3 (RV167_YEAST), P39743.
T3 chain: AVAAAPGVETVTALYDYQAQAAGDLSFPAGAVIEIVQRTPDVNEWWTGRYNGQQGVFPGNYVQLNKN

The target in assay [4] is T4, Boi2 SH3 (BOI2_YEAST), P39969.
T4 chain: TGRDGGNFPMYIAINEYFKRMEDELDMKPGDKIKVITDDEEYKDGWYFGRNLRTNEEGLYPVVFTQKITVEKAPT

In assay [5] the target is T5, Boi1 SH3 (BOI1_YEAST), P38041.
T5 chain: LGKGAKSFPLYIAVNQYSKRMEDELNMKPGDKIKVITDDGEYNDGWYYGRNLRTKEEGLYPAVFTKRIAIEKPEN

We go through 15 molecules from article PMC314469, “Protein Interaction Networks by Proteome Peptide Scanning” (PLoS Biology, 2004).

B1: YLR238W 11-24 (peptide)
chain: EEHPSSPGKKQITY
Turning to B1, the normalised SPOT signal, Boehringer light units (BLU); mean over the file's lines of this peptide is 44.3 in assay [1]; 24.5 in assay [2]; 5.7 in assay [3]; 17.6 in assay [4]; 84 in assay [5].

B2: YAR014C 249-262 (peptide)
chain: DYQPLSPPRELDPD
Regarding B2, the normalised SPOT signal, Boehringer light units (BLU); mean over the file's lines of this peptide in assay [1] was found to be 506; in assay [2], 313; in assay [3], 322; in assay [4], 8.8; in assay [5] it was 122.

B3: YJL204C 669-682 (peptide)
chain: DYNPPPPSRNSPIR
As to B3, the normalised SPOT signal, Boehringer light units (BLU); mean over the file's lines of this peptide in assay [1] was 874; in assay [2], 323; in assay [3] it was 9.9; in assay [4], 31.1; in assay [5], 194.

B4: YER081W 311-324 (peptide)
chain: DVYPHEPAKNGEGS
B4: the normalised SPOT signal, Boehringer light units (BLU); mean over the file's lines of this peptide in assay [1] came out at 125; in assay [2], 223; in assay [3], 44.3; in assay [4] it was 37.8; in assay [5] it was 98.3.

B5: YGL125W 158-171 (peptide)
chain: ESHPELPNKDVKLD
B5: the normalised SPOT signal, Boehringer light units (BLU); mean over the file's lines of this peptide worked out at 139 in assay [1]; 75.4 in assay [2]; 25.4 in assay [3]; 22.1 in assay [4]; 128 in assay [5].

B6: YCR088W 505-518 (peptide)
chain: EAAPQLPSRSSAAP
Turning to B6, the normalised SPOT signal, Boehringer light units (BLU); mean over the file's lines of this peptide in assay [1] was 55000; in assay [2], 93000; in assay [3] it was 23100; in assay [4], 20.3; in assay [5] it was 102.

B7: YOR066W 225-238 (peptide)
chain: EAPPAKPSRSDIID
Consider B7, for which the normalised SPOT signal, Boehringer light units (BLU); mean over the file's lines of this peptide in assay [1] worked out at 3400; in assay [2], 2010; in assay [3], 31.9; in assay [4] it was 54.9; in assay [5], 70.5.

B8: YDR103W 109-122 (peptide)
chain: DYLPQHPHRTSSLP
Turning to B8, the normalised SPOT signal, Boehringer light units (BLU); mean over the file's lines of this peptide in assay [1] was 206; in assay [2], 172; in assay [3] it was 109; in assay [4], 33.4; in assay [5], 17.6.

B9: YDR322W 274-287 (peptide)
chain: DYLPPVPEKNAGKQ
For B9, the normalised SPOT signal, Boehringer light units (BLU); mean over the file's lines of this peptide was 681 in assay [1]; 198 in assay [2]; 42.3 in assay [3]; 91.7 in assay [4]; 47.4 in assay [5].

B10: YER166W 783-796 (peptide)
chain: EANPDNPKKLDLKA
As to B10, the normalised SPOT signal, Boehringer light units (BLU); mean over the file's lines of this peptide in assay [1] amounted to 257; in assay [2], 247; in assay [3], 45.6; in assay [4], 7.6; in assay [5] it was 79.1.

B11: YLL021W 583-596 (peptide)
chain: EESPVKPLKITQKA
For B11, the normalised SPOT signal, Boehringer light units (BLU); mean over the file's lines of this peptide was 290 in assay [1]; 51.3 in assay [2]; 51.1 in assay [3]; 40.1 in assay [4]; 59.6 in assay [5].

B12: YJR137C 1229-1242 (peptide)
chain: EDTPDLPQKTGIRK
With B12, the normalised SPOT signal, Boehringer light units (BLU); mean over the file's lines of this peptide is 5620 in assay [1]; 100 in assay [2]; 14.6 in assay [3]; 18 in assay [4]; 24.7 in assay [5].

B13: YOL070C 274-287 (peptide)
chain: DYNPTIPPRSKDRP
As to B13, the normalised SPOT signal, Boehringer light units (BLU); mean over the file's lines of this peptide in assay [1] turned out to be 6750; in assay [2], 2400; in assay [3], 3120; in assay [4], 11300; in assay [5] it was 35500.

B14: YOR042W 80-93 (peptide)
chain: EEHPPLPARRKSEE
Regarding B14, the normalised SPOT signal, Boehringer light units (BLU); mean over the file's lines of this peptide in assay [1] was determined as 31200; in assay [2], 72200; in assay [3], 26300; in assay [4], 53.3; in assay [5] it was 619.

B15: YPR171W 203-216 (peptide)
chain: EEKPLLPTRPNKAE
B15: the normalised SPOT signal, Boehringer light units (BLU); mean over the file's lines of this peptide in assay [1] amounted to 46300; in assay [2] it was 62400; in assay [3], 6410; in assay [4] it was 54.8; in assay [5] it was 0.
